# Source: article PMC2148190 (The Journal of Cell Biology, 1999)
# Experiments:
# [1] = biological target: His-tagged human Bcl-xL lacking 24 amino acids at the COOH terminus (human, UniProt Q07817-1 1-209); test: co-IP
# [2] = biological target: Human Bcl-2 lacking 34 amino acids at the COOH terminus (human, UniProt P10415 1-205); test: co-IP
# Sequence of Human Bcl-2 lacking 34 amino acids at the COOH terminus (P10415 1-205): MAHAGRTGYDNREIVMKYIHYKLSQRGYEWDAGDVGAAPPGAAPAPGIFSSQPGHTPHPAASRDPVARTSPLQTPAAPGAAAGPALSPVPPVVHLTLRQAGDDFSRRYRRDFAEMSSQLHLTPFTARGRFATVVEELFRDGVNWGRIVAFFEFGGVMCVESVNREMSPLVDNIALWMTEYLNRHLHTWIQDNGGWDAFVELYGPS
# Sequence of His-tagged human Bcl-xL lacking 24 amino acids at the COOH terminus (Q07817 1-209): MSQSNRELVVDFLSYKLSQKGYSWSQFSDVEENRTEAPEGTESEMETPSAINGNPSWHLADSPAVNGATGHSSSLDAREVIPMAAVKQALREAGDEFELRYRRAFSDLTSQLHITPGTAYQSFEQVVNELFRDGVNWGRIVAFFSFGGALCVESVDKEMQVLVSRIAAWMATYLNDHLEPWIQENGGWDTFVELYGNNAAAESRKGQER
binder,measurement,setting,value
His-tagged Bid (recombinant wild-type Bid) (natural protein) MDSEVSNGSGLGAEHITDLLVFGFLQSSGCTRQELEVLGRELPVQAYWEADLEDELQTDGSQASRSFNQGRIEPDSESQEEIIHNIARHLAQIGDEMDHNIQPTLVRQLAAQFMNGSLSEEDKRNCLAKALDEVKTAFPRDMENDKAMLIMTMLLAKKVASHAPSLLRDVFHTTVNFINQNLFSYVRNLVRNEMD,binding result,[1],binds
same,binding result,[2],binds
BidmIII-3 (G94→ A) (natural protein) MDSEVSNGSGLGAEHITDLLVFGFLQSSGCTRQELEVLGRELPVQAYWEADLEDELQTDGSQASRSFNQGRIEPDSESQEEIIHNIARHLAQIADEMDHNIQPTLVRQLAAQFMNGSLSEEDKRNCLAKALDEVKTAFPRDMENDKAMLIMTMLLAKKVASHAPSLLRDVFHTTVNFINQNLFSYVRNLVRNEMD,binding result,[1],binds
same,binding result,[2],binds
